These results are taken from patent US20260049134A1 (UNIVERSITY OF FLORIDA RESEARCH FOUNDATION, published 2026).

First the molecules themselves.
T1: CADM1, endogenous in H929 multiple myeloma cells (human, UniProt Q9BY67 45-442)
T1 construct: Native protein on H929 cells (flow cytometry, siRNA knockdown) and in H929 lysates (IP/MS); RPMI-8226 cells were used for sorting with HW-97; also called IGSF4A
T1 sequence: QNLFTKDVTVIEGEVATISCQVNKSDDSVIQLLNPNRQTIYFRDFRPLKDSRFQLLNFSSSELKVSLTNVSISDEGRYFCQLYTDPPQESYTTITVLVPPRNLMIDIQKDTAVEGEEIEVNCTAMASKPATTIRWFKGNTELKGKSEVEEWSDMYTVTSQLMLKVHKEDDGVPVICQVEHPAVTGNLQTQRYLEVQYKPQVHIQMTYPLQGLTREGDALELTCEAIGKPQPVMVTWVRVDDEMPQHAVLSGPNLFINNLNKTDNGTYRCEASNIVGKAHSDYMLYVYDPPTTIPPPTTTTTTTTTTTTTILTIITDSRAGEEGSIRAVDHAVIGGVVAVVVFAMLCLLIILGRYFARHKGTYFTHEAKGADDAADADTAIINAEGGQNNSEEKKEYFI

B1: HW-42 chimeric rabbit-human IgG1 LA/LA/PG (antibody, V domains shown)
VH: QSVKESEGGLFKPADTLTLTCTVSGFSLSSNEISWVRQAPGEGLEYIGIIDTGGRAYYAVWARSRSTITRNTNLNTVTLKMTSLTAADTATYFCARGGVDTEWYAFSSWGPGTLVTVPS
VL: SFVLTQPASVQVNLGQTVSLTCTADTLSRRYASWYQQKPGQAPVLLIFRDTSRPSGVPDRFSGSSSGDTATLTISGAQAGDEADYYCATSDGSGSNYQYVFGGGTQLTVTG
notes: Fc-silenced (L234A/L235A/P329G) IgG1, lambda; Alexa Fluor 647-labeled in single-step flow cytometry; Cluster C-1
B2: HW-70 chimeric rabbit-human IgG1 LA/LA/PG (antibody, V domains shown)
VH: QSLEESGGRLVTPGTPLTLTCTVSGFSLSSNAMSWVRQAPGKGLEWIGTIDGYGYTYYASWAKGRFTVSKTSTTVDLKITSPTTEDTATYFCAREIYLGSNFWGPGTLVTISS
VL: B1 VL with F48Y, D68N, S90A, N96S, Y99F
notes: as for B1
B3: HW-17 chimeric rabbit-human IgG1 LA/LA/PG (antibody, V domains shown)
VH: QSLGESRGRLVTPDETLTLTCTVSGIDLSSNAMSWVRQAPGEGLEWIGTINTGGRAYYASWAKGRFTISRTSTTVDLKMTSLTTEDTATYFCARERYSDGRAYDIWGPGTLVTISS
VL: B1 VL with F48Y, R49T, T51S, S52N, V57I, D68N, S90D, N96I
notes: as for B1
B4: HW-25 chimeric rabbit-human IgG1 LA/LA/PG (antibody, V domains shown)
VH: QSLEESGGRLVTPGTPLTLTCTVSGFSLSSYAMGWVRQAPGKGLEWIGIIDSRGSTYYATWAKGRFTISKTSTTVDLKITSPTTEDTATYFCAREDSYYYDSFNLWGPGTLVTVSS
VL: B1 VL with F48Y, D68N, N96S, Y99C
notes: as for B1
B5: HW-1 chimeric rabbit-human IgG1 LA/LA/PG (antibody, V domains shown)
VH: QSLEESGGGLFKPTDTLTLTCTASGFSLGSSYAISWVRQAPGKELEWIGTIDSGRAYYARWAKSRSTITRNTNENTVTLKMTSLTAADTATYFCARDLIPTYSQDIWGPGTLVTISS
VL: B1 VL with F48Y, D68N, S95N, N96S, G111S
notes: Fc-silenced (L234A/L235A/P329G) IgG1, lambda; Alexa Fluor 647-labeled in single-step flow cytometry; Prototype of cluster C-1
B6: TH9-0022 (antibody, human IgG1, kappa, L234A L235A, V domains shown)
VH: QSLEESGGRLVTPGTPLTLTCTVSGFSLSSYAMNWVRQAPGKGLEWIGIINSYGSTYYASWAKGRFTISKTSTTVDLKITSPTTEDTATYFCARVTYDSYGYGYAPYGMDLWGPGTLVTVSS
VL: LVMTQTPSSTSNAVGGTVTIKCQASQSIGNVLAWYQQKPGQPPKLLIYAASTLASGVPSRVGGSRSGTEYTLTISGVQREDAATYYCLGSDSDSDIAFGGGTELEILR
notes: also called TH9-022; negative control
B7: HW-97 chimeric rabbit-human IgG1 LA/LA/PG (antibody, V domains shown)
VH: QKQLVESGGRLVTPGTPLTLTCTVTGIDLSSHGMSWVRQAPGKGLEWIGVIYPSGSTWYASWARGRFTISKTSTTVDLKMTSLTTEDTATHFCARGDVGGADNNIWGPGTLVTVSS
VL: B1 VL with N13D, D25E, R30S, F48Y, D68N, N96S
notes: Fc-silenced (L234A/L235A/P329G) IgG1, lambda; Alexa Fluor 647-labeled in single-step flow cytometry; Prototype of cluster C-97
B8: HW-101 chimeric rabbit-human IgG1 LA/LA/PG (antibody, V domains shown)
VH: QEQLVESGGRLVTPGTPLTLTCKASGFSLGKYDMSWVRQAPGKGLEWIGTIYAGSGSTWYASWAKGRFTISKTSTTVDLKMTSLTTEDTATYFCARDFLGVNSIWGPGTLVTISS
VL: B1 VL with R30S, G40D, F48H, S65N, D68N, Y97F, Q98H, Y99F
notes: Fc-silenced (L234A/L235A/P329G) IgG1, lambda; Alexa Fluor 647-labeled in single-step flow cytometry; Cluster C-97
B9: HW-113 chimeric rabbit-human IgG1 LA/LA/PG (antibody, V domains shown)
VH: QKQLVESGGGLVQPGGSLTLTCTVSGFSLNKYYMGWFRQAPGKGLEWIGVISRSGDTYYSSWAKGRFTISKASTTVDLRITSPTTEDTATYFCARDASSPGFHGDRLDLWGQGTLVTVSS
VL: B1 VL with R30S, F48Y, D68N, S93I, Q98L, Y99W
notes: Fc-silenced (L234A/L235A/P329G) IgG1, lambda; Alexa Fluor 647-labeled in single-step flow cytometry
B10: TH9-0022 (antibody, human IgG1, kappa, L234A L235A, V domains shown)
VH: B6 VH
VL: B6 VL
notes: also called TH9-022; negative control IgG1
B11: HW-45 chimeric rabbit-human IgG1 LA/LA/PG (antibody, V domains shown)
VH: QKQLVESGGRLVTPGTPLTLTCTVSGFSLSSYAMGWFRQAPGKGLEWIGIINSYGSTYYASWAKGRFTISKTSTTVDLKITSPTTEDTATYFCGRRIGSARFDPWGPGTLVTVSS
VL: B1 VL with R30S, F48Y, S52R, D68N, N96S, Q98R, Y99L
notes: Fc-silenced (L234A/L235A/P329G) IgG1, lambda; Alexa Fluor 647-labeled in single-step flow cytometry; Prototype of cluster C-45

Numbering of substitutions follows the chain as printed. Names may count otherwise.

T3 sequence (P05362 28-532 limits assumed): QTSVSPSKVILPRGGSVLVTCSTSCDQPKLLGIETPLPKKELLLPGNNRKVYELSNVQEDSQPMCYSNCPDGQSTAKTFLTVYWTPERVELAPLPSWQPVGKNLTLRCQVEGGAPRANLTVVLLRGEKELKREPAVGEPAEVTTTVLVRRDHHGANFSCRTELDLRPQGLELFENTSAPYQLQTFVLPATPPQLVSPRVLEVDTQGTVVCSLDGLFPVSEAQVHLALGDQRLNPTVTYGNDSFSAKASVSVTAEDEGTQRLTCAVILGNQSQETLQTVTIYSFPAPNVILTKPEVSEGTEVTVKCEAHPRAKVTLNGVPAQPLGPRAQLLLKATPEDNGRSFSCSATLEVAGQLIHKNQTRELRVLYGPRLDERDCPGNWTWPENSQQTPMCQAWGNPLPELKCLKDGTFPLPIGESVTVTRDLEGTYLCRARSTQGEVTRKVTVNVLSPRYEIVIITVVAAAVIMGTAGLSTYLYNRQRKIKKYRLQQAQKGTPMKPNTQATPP

The first experiment deals with T2, PTPRG, endogenous in H929 multiple myeloma cells (human, UniProt P23470 20-1445).
T2 construct: Native protein on H929 cells (flow cytometry, siRNA knockdown) and in H929 lysates (IP/MS); also called phosphatase receptor type γ
T2 sequence (P23470 20-1445 limits assumed): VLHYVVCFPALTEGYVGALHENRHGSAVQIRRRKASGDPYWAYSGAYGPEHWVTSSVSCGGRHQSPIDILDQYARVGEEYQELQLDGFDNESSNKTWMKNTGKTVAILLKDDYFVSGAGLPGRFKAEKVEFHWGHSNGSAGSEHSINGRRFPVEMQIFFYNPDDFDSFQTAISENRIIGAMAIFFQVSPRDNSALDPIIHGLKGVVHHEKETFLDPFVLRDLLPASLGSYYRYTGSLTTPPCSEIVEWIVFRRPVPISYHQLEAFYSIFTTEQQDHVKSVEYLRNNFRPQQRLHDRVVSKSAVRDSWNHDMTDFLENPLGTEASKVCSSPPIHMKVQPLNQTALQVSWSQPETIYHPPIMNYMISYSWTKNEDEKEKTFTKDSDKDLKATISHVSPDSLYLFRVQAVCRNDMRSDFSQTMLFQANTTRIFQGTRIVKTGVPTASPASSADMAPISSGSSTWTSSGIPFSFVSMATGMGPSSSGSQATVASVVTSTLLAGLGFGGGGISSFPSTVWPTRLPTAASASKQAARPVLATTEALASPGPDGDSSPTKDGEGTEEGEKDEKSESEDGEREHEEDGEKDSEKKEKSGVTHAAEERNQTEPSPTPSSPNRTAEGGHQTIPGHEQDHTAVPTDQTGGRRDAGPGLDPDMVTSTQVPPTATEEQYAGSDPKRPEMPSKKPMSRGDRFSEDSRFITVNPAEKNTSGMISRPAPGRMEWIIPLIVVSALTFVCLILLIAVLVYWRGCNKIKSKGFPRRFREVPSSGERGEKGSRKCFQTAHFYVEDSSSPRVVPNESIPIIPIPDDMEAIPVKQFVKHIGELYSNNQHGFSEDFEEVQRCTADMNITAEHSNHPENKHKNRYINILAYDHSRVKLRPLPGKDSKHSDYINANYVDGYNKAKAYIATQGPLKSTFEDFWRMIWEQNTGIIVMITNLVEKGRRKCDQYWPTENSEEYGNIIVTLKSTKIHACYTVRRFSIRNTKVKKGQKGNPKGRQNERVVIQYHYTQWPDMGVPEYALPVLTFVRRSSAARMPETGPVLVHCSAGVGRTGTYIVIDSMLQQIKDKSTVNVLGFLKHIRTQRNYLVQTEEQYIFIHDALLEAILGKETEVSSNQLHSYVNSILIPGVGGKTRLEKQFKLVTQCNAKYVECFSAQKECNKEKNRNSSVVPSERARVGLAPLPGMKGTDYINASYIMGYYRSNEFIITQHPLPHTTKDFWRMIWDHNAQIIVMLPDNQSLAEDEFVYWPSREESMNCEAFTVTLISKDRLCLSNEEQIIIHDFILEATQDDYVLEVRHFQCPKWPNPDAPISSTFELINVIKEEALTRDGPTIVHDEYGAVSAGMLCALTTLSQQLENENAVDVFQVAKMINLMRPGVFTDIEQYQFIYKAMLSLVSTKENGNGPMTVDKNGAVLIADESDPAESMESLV
In words: flow cytometry, H929 + CADM1 siRNA; None 449. On the technique in general: A flow cytometer gives signals particle by particle.
Take B1: the “mAb binding (MFI)” value was found to be 9210.
The same measure, in the same setting: with B2 the figure was 13800; with B3, 21000.
The same measure, in the same setting: with B4 the figure was 8720.
Same read-out and setting: with B5 the figure was 17500.

The next experiment has as its target T1, CADM1, endogenous in H929 multiple …. Description: flow cytometry, H929 + NT Green siRNA; None 416.
Take B6: the “mAb binding (MFI)” value came to 483.
For B7, the “mAb binding (MFI)” value came out at 9600.
Consider B8, for which the “mAb binding (MFI)” value was 6440.

The next experiment addresses T3, ICAM1, endogenous in H929 multiple myeloma cells (human, UniProt P05362 28-532).
T3 construct: Native protein on H929 cells (flow cytometry, siRNA knockdown) and in H929 lysates (IP/MS); also called CD54
In words: flow cytometry, H929 + vehicle; None 513.
Consider B6, for which the “mAb binding (MFI)” value stood at 595.
Same read-out and setting: then B9, with 49100.

The target in a further experiment is T1, CADM1, endogenous in H929 multiple …. Description: flow cytometry, H929 + vehicle; None 2.74.
On to B6, for which the “Cells stained (%)” value was 2.62%.
Same read-out and setting: then B7, with 98.4%.
Turning to B8, the “Cells stained (%)” value amounted to 94.3%.

The target is the same in another experiment. In words: flow cytometry, H929 + ICAM1 siRNA; None 1.06.
For B7, the “Cells stained (%)” value worked out at 97.1%.
On to B8, for which the “Cells stained (%)” value came to 93.8%.

The target in another experiment is T3, ICAM1, endogenous in H929 multiple …. In words: IP from H929 cell lysate, LC-MS/MS, heatmap. How it is done:
(§1) Immunoprecipitation. […] After 30 min of rocking at 4° C., and lysates were centrifuged at 18,400×g for 20 min at 4° C. Subsequently, 1-mL aliquots of the supernatants were pre-cleared twice with Protein G agarose (Thermo Fisher Scientific) by adding 50 μL of 50% resin slurry and incubating 30 min with end-over-end tumbling at 4° C., followed by centrifugation at 16,000×g for 5 min and pooling of the pre-cleared cell lysate aliquots. Representative mAbs from each cluster were immobilized on Protein G agarose at a ratio of 25 μg IgG1 per 30 μL of 50% slurry, diluted to 500 μL with Dulbecco's PBS (DPBS) and incubated for 1 h at 4° C. with tumbling, followed by centrifugation at 5,000×g for 30 s and 2 washes with lysis buffer. After the last wash, the ˜15 μL of IgG1-coated resin was blocked with 10 μL of 10% BSA (MilliporeSigma). Next, 1 mL of the pooled pre-cleared cell lysate was added to the IgG1-coated resin and incubated for 3 h at 4° C. with tumbling. The immune complexes were pelleted by centrifugation at 2,500×g at 4° C. for 30 s, and gently resuspended to wash for 3 min in 1 mL of lysis buffer, which was repeated once with lysis buffer and twice with an identical wash buffer lacking Triton X-100. Finally, the immune complexes were eluted from the resin with three batch-wise steps using 30 μL of elution buffer (6 or 8 M urea (MilliporeSigma), 20 mM Tris-HCl pH 7.5, and 100 mM NaCl) and incubating 15 min at RT with 450 rpm orbital agitation. Finally, 16 μL of the eluate (˜20%) was analyzed on a reducing SDS-PAGE gel stained with SYPRO Ruby dye (Bio-Rad Laboratories), while the rest was stored at −80° C. prior to LC-MS/MS analysis.
(§2) Protein elutions in 6 or 8 M urea were reduced with 15 mM dithiothreitol at 56° C. for 30 min followed by alkylation with 30 mM iodoacetamide in the dark at RT. The elutions were then diluted to 1 M urea with 50 mM ammonium bicarbonate pH 7.8 and digested overnight at 37° C. following the addition of 4 μg trypsin (Promega).
For B10, the binding result is recorded as “no binding”.
Still for that read-out and setting: with B5 the entry was “no binding”; with B11, “no binding”.
In the case of B8, the binding result is on record as “no binding”.

The target of another experiment is T1, CADM1, endogenous in H929 multiple …. Description: IP from H929 cell lysate, LC-MS/MS, heatmap. On the procedure:
as §1, §2
For B10, the binding result was “no binding”.
Still for that read-out and setting: then B9, with “no binding”.
Still for that read-out and setting: with B5 the entry was “no binding”.
On the same count and under the same terms, then B11, with “no binding”.

A further experiment deals with T2, PTPRG, endogenous in H929 multiple …. In words: IP from H929 cell lysate, LC-MS/MS, heatmap. How it is done:
as §1, §2
In the case of B9, the binding result was “no binding”.
On the same count and under the same terms, with B11 the entry was “no binding”.
As to B8, the binding result is reported as “no binding”.
